“And” between values parts separate entries of the source, which are not always exact repeats. Equal entries are not always repeated.
Experiments:
Test in all cases: cell-based or functional assay
cynomolgus monkey IL-13 = cynomolgus monkey IL-13 (cynomolgus monkey, UniProt Q0PW92 21-132)
cynomolgus monkey IL-4 = molecular target: T1, cynomolgus monkey IL-4 (cynomolgus monkey, UniProt P79339 25-153)
T1 sequence (looked up): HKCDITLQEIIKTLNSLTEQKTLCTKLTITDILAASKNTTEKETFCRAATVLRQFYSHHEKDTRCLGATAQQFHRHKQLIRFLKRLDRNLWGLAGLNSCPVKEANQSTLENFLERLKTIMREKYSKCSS

recombinant human IL-13 = recombinant human IL-13 (human, UniProt P35225 35-146, limits assumed)
Sequence of recombinant human IL-13 (P35225 35-146 limits assumed): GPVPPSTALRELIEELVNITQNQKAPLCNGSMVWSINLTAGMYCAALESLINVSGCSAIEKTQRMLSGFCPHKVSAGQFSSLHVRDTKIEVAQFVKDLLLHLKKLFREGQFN

Sequence of cynomolgus monkey IL-13 (Q0PW92 entry or part of it): as the sequence (P35225 35-146 limits assumed) above, with G1S, R10K, M42V, S67N, H83R, L100V counted along it

B1: huTBTI3_2_1 (bispecific antibody)
chain 1: EVQLKESGPGLVAPGGSLSITCTVSGFSLTDSSINWVRQPPGKGLEWLGMIWGDGRIDYADALKSRLSISKDSSKSQVFLEMTSLRTDDTATYYCARDGYFPYAMDFWGQGTSVTVSSGGGGSGGGGSQVQLQQSGPELVKPGASVKISCKASGYSFTSYWIHWIKQRPGQGLEWIGMIDPSDGETRLNQRFQGRATLTVDESTSTAYMQLRSPTSEDSAVYYCTRLKEYGNYDSFYFDVWGAGTLVTVSSA
chain 2: DIVLTQSPASLAVSLGQRATISCRASESVDSYGQSYMHWYQQKAGQPPKLLIYLASNLESGVPARFSGSGSRTDFTLTIDPVQAEDAATYYCQQNAEDSRTFGGGTKLEIKGGGGSGGGGSDIQMTQSPASLSVSVGDTITLTCHASQNIDVWLSWFQQKPGNIPKLLIYKASNLHTGVPSRFSGSGSGTGFTLTISSLQPEDIATYYCQQAHSYPFTFGGGTKLEIKR
geometric mean IC50, inhibition of cIL-13-induced TF-1 cell proliferation (cynomolgus monkey IL-13): 0.45 nM | geometric mean IC50, inhibition of cIL-4-induced TF-1 cell proliferation (cynomolgus monkey IL-4): 0.53 nM | IC50, inhibition of IL-4- and IL-13-induced LOX gene expression in IPF lung fibroblasts (recombinant human IL-13): 3 nM and 6 nM | IC50, inhibition of IL-13-induced Stat6 phosphorylation in human whole blood monocytes, donor 002 (recombinant human IL-13): 1.32 nM | IC50, inhibition of IL-13-induced Stat6 phosphorylation in human whole blood monocytes, donor 229 (recombinant human IL-13): 3.68 nM | IC50, inhibition of IL-13-induced Stat6 phosphorylation in human whole blood monocytes, donor 245 (recombinant human IL-13): 2.65 nM | IC50, suppression of IL-6 release from IPF lung fibroblasts (LL97A) stimulated with rhIL-13 + rhIL-4 together (recombinant human IL-13): 7.8 nM | IC50, suppression of eotaxin release from IPF lung fibroblasts (LL97A) stimulated with rhIL-13 + rhIL-4 together (recombinant human IL-13): 3.8 nM | geometric mean IC50, inhibition of hIL-13-induced TF-1 cell proliferation (recombinant human IL-13): 3.02 nM | geometric mean IC50 of three experiments, inhibition of IL-13-induced Stat6 phosphorylation (recombinant human IL-13): 2.34 nM

Source: patent publication JP2019059762A (dated 2019)
